Source: patent US20180155451A1 (published 2018)

B1: GpH7-A5/GpH7-B3 variant S298_03V/GpL16-k0 (antibody, human IgG1, kappa)
heavy 1: not shown
heavy 2: not shown
light: DIVMTQSPLSLPVTPGEPASISCQASESLVHSNRNTYLHWYLQKPGQSPQLLIYKVSNRFSGVPDRFSGSGSGTDFTLKISRVEAEDVGVYYCSQNTHVPPTFGQGTKVEIERTVAAPSVFIFPPSDEQLKSGTASVVCLLNNFYPREAKVQWKVDNALQSGNSQESVTEQDSKDSTYSLSSTLTLSKADYEKHKVYACEVTHQGLSSPVTKSFNRGEC
notes: He Ab: mutation only in the GpH7-B3 H chain; EU numbering; also called He Ab
B2: GpH7-A5/GpH7-B3 variant S298_14T/GpL16-k0 (antibody, human IgG1, kappa)
heavy 1: not shown
heavy 2: not shown
light: B1 light
notes: as for B1
B3: GpH7-A5/GpH7-B3 variant Y296_10E/GpL16-k0 (antibody, human IgG1, kappa)
heavy 1: not shown
heavy 2: not shown
light: B1 light
notes: as for B1
B4: GpH7-A5/GpH7-B3 variant Y296_13S/GpL16-k0 (antibody, human IgG1, kappa)
heavy 1: not shown
heavy 2: not shown
light: B1 light
notes: as for B1
B5: GpH7-A5/GpH7-B3 variant Q295_12R/GpL16-k0 (antibody, human IgG1, kappa)
heavy 1: not shown
heavy 2: not shown
light: B1 light
notes: as for B1
B6: GpH7-A5/GpH7-B3 variant S298_04F/GpL16-k0 (antibody, human IgG1, kappa)
heavy 1: not shown
heavy 2: not shown
light: B1 light
notes: as for B1
B7: GpH7-A5/GpH7-B3 variant S298_11K/GpL16-k0 (antibody, human IgG1, kappa)
heavy 1: not shown
heavy 2: not shown
light: B1 light
notes: as for B1
B8: GpH7-A5/GpH7-B3 variant Q295_14T/GpL16-k0 (antibody, human IgG1, kappa)
heavy 1: not shown
heavy 2: not shown
light: B1 light
notes: as for B1
B9: GpH7-A5/GpH7-B3 variant S298_07I/GpL16-k0 (antibody, human IgG1, kappa)
heavy 1: not shown
heavy 2: not shown
light: B1 light
notes: as for B1
B10: GpH7-A5/GpH7-B3 variant Y296_18N/GpL16-k0 (antibody, human IgG1, kappa)
heavy 1: not shown
heavy 2: not shown
light: B1 light
notes: as for B1
B11: GpH7-A5/GpH7-B3 variant S298_02A/GpL16-k0 (antibody, human IgG1, kappa)
heavy 1: not shown
heavy 2: not shown
light: B1 light
notes: as for B1
B12: GpH7-A5/GpH7-B3 variant Y296_04F/GpL16-k0 (antibody, human IgG1, kappa)
heavy 1: not shown
heavy 2: not shown
light: B1 light
notes: as for B1
B13: GpH7-A5/GpH7-B3 variant Q295_11K/GpL16-k0 (antibody, human IgG1, kappa)
heavy 1: not shown
heavy 2: not shown
light: B1 light
notes: as for B1
B14: GpH7-A5/GpH7-B3 variant Q295_15Y/GpL16-k0 (antibody, human IgG1, kappa)
heavy 1: not shown
heavy 2: not shown
light: B1 light
notes: as for B1
B15: GpH7-A5/GpH7-B3 variant Y296_07I/GpL16-k0 (antibody, human IgG1, kappa)
heavy 1: not shown
heavy 2: not shown
light: B1 light
notes: as for B1
B16: GpH7-A5/GpH7-B3 variant D270_01G/GpL16-k0 (antibody, human IgG1, kappa)
heavy 1: not shown
heavy 2: not shown
light: B1 light
notes: heterodimerized anti-glypican-3 IgG1; alteration in the GpH7-B3 chain only; also called He Ab
B17: GpH7-A5/GpH7-B3 variant A330_04F/GpL16-k0 (antibody, human IgG1, kappa)
heavy 1: not shown
heavy 2: not shown
light: B1 light
notes: as for B16
B18: GpH7-A5/GpH7-B3 variant A330_06M/GpL16-k0 (antibody, human IgG1, kappa)
heavy 1: not shown
heavy 2: not shown
light: B1 light
notes: as for B16
B19: GpH7-A5/GpH7-B3 variant A330_07I/GpL16-k0 (antibody, human IgG1, kappa)
heavy 1: not shown
heavy 2: not shown
light: B1 light
notes: as for B16
B20: GpH7-A5/GpH7-B3 variant A327_13S/GpL16-k0 (antibody, human IgG1, kappa)
heavy 1: not shown
heavy 2: not shown
light: B1 light
notes: as for B16
B21: GpH7-A5/GpH7-B3 variant A327_03V/GpL16-k0 (antibody, human IgG1, kappa)
heavy 1: not shown
heavy 2: not shown
light: B1 light
notes: as for B16
B22: GpH7-A5/GpH7-B3 variant A330_03V/GpL16-k0 (antibody, human IgG1, kappa)
heavy 1: not shown
heavy 2: not shown
light: B1 light
notes: as for B16
B23: GpH7-A5/GpH7-B3 variant A327_06M/GpL16-k0 (antibody, human IgG1, kappa)
heavy 1: not shown
heavy 2: not shown
light: B1 light
notes: as for B16
B24: GpH7-A5/GpH7-B3 variant A330_08L/GpL16-k0 (antibody, human IgG1, kappa)
heavy 1: not shown
heavy 2: not shown
light: B1 light
notes: as for B16

What follows are binders tested against T1, FcγRIIb (human, UniProt P31994 43-217) (assay: SPR (Biacore), captured antibody, soluble FcγR; relative to GpH7-A5/GpH7-B3/GpL16-k0).
T1 construct: extracellular domain; also called FcgRIIb; 2b; not shown: His tag at the C terminus
T1 sequence (looked up): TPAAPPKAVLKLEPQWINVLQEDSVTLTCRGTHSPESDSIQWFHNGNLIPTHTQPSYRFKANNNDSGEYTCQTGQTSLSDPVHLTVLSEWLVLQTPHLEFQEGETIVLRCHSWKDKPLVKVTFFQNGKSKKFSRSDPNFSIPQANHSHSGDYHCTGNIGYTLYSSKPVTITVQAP

Row | Binder | He/Con_2b
1 | B1 | 64.5 relative, HeCon Ab = 100
2 | B2 | 77.9 relative, HeCon Ab = 100
3 | B3 | 98 relative, HeCon Ab = 100
4 | B4 | 86.3 relative, HeCon Ab = 100
5 | B5 | 65.2 relative, HeCon Ab = 100
6 | B6 | 65.4 relative, HeCon Ab = 100
7 | B7 | 61.3 relative, HeCon Ab = 100
8 | B8 | 66.8 relative, HeCon Ab = 100
9 | B9 | 70.6 relative, HeCon Ab = 100
10 | B10 | 91.5 relative, HeCon Ab = 100
11 | B11 | 73.4 relative, HeCon Ab = 100
12 | B12 | 99.2 relative, HeCon Ab = 100
13 | B13 | 70.4 relative, HeCon Ab = 100
14 | B14 | 65.4 relative, HeCon Ab = 100
15 | B15 | 84.3 relative, HeCon Ab = 100

Each binder was assayed against T2, FcγRIa (human, UniProt P12314 16-292) in the same assay as above.
T2 construct: extracellular domain; also called FcgRI; 1a; not shown: His tag at the C terminus
T2 sequence (P12314 16-292): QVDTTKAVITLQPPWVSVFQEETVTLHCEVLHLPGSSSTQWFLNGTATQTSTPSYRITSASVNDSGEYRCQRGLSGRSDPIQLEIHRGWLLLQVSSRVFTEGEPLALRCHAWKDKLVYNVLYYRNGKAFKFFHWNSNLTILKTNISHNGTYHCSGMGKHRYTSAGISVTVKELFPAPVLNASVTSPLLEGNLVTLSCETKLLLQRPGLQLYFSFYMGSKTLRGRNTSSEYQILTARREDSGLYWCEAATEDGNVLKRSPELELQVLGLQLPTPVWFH

Row | Binder | He/Con_1a
16 | B1 | 110 relative, HeCon Ab = 100
17 | B2 | 107 relative, HeCon Ab = 100
18 | B3 | 106 relative, HeCon Ab = 100
19 | B4 | 105 relative, HeCon Ab = 100
20 | B5 | 100 relative, HeCon Ab = 100
21 | B6 | 109 relative, HeCon Ab = 100
22 | B7 | 109 relative, HeCon Ab = 100
23 | B8 | 103 relative, HeCon Ab = 100
24 | B9 | 107 relative, HeCon Ab = 100
25 | B10 | 106 relative, HeCon Ab = 100
26 | B11 | 107 relative, HeCon Ab = 100
27 | B12 | 104 relative, HeCon Ab = 100
28 | B13 | 101 relative, HeCon Ab = 100
29 | B14 | 102 relative, HeCon Ab = 100
30 | B15 | 104 relative, HeCon Ab = 100

The binders below were run against T3, FcγRIIb extracellular domain with C-terminal His tag (human, UniProt P31994 43-217) (assay: SPR (Biacore), antibody captured on antigen peptide chip, FcγR as analyte; relative binding).
T3 construct: extracellular domain; soluble receptor expressed in FreeStyle293 cells, used as analyte in Biacore; also called FcgRIIb; 2b; not shown: His tag attached to the C terminus
T3 sequence (looked up): T1 sequence (looked up)

Row | Binder | He/Con_2b
31 | B16 | 30.5 % of control GpH7-A5/GpH7-B3/GpL16-k0 (=100)
32 | B17 | 92.8 % of control GpH7-A5/GpH7-B3/GpL16-k0 (=100)
33 | B18 | 80.5 % of control GpH7-A5/GpH7-B3/GpL16-k0 (=100)
34 | B19 | 67.1 % of control GpH7-A5/GpH7-B3/GpL16-k0 (=100)
35 | B20 | 79.5 % of control GpH7-A5/GpH7-B3/GpL16-k0 (=100)
36 | B21 | 94.7 % of control GpH7-A5/GpH7-B3/GpL16-k0 (=100)
37 | B22 | 52.4 % of control GpH7-A5/GpH7-B3/GpL16-k0 (=100)
38 | B23 | 59.5 % of control GpH7-A5/GpH7-B3/GpL16-k0 (=100)
39 | B24 | 70.5 % of control GpH7-A5/GpH7-B3/GpL16-k0 (=100)

What follows are binders tested against T4, FcγRIa extracellular domain with C-terminal His tag (human, UniProt P12314 16-292) in the same assay as above.
T4 construct: extracellular domain; soluble receptor expressed in FreeStyle293 cells, used as analyte in Biacore; also called FcgRI; 1a; not shown: His tag attached to the C terminus
T4 sequence (P12314 16-292): as above

Row | Binder | He/Con_1a
40 | B16 | 76.3 % of control GpH7-A5/GpH7-B3/GpL16-k0 (=100)
41 | B17 | 106 % of control GpH7-A5/GpH7-B3/GpL16-k0 (=100)
42 | B18 | 105 % of control GpH7-A5/GpH7-B3/GpL16-k0 (=100)
43 | B19 | 105 % of control GpH7-A5/GpH7-B3/GpL16-k0 (=100)
44 | B20 | 102 % of control GpH7-A5/GpH7-B3/GpL16-k0 (=100)
45 | B21 | 103 % of control GpH7-A5/GpH7-B3/GpL16-k0 (=100)
46 | B22 | 106 % of control GpH7-A5/GpH7-B3/GpL16-k0 (=100)
47 | B23 | 103 % of control GpH7-A5/GpH7-B3/GpL16-k0 (=100)
48 | B24 | 107 % of control GpH7-A5/GpH7-B3/GpL16-k0 (=100)
